Measurements as given in patent US20110243929A1.

Legend:
[1] = biological target: cynomolgus ICOS (cynomolgus); test: flow cytometry, cynomolgus splenic memory T cells (CD4+ CD45RA-)
[2] = biological target: cynomolgus ICOS (cynomolgus); test: flow cytometry, cynomolgus mesenteric lymph node activated T cells (CD4+ CD45RA-)
[3] = biological target: cynomolgus ICOS (cynomolgus); test: flow cytometry, cynomolgus splenic naive T cells (CD4+ CD45RA+)
[4] = biological target: cynomolgus ICOS (cynomolgus); test: flow cytometry, cynomolgus mesenteric lymph node naive T cells (CD4+ CD45RA+)

Sequence of cynomolgus ICOS (cynomolgus) (A0A2K5 entry or part of it limits assumed): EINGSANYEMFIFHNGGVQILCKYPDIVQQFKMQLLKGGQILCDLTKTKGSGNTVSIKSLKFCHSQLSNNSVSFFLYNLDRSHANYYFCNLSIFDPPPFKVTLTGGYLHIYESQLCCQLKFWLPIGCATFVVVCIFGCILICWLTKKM

% of gated cells in the positive quadrant [1]: 2.4%
% of gated cells in the positive quadrant [2]: 1.64%
% of gated cells in the positive quadrant [3]: 1.7%
% of gated cells in the positive quadrant [4]: 2.8%
Substance: Isotype Control (antibody)
